Data as given in PMC5446181.
One block for each molecule: values may come before it.

Columns and labels:
[1] = molecular target: TChz, truncated recognition fragment (middle region, MoRF) of the histone chaperone Chz1 (UniProt P40019); test: ITC; 200 uM TBZ_(Y139W) injected into 20 uM TChz, 298 K, NANO-ITC, 1:1 isothermal binding model
[2] = molecular target: TBZ_(Y139W), tryptophan variant (pseudo-WT) of the H2A.Z-H2B linked fragment; test: stopped-flow fluorescence; TChz 4, 6, 8, 12, 20 uM mixed with 2 uM TBZ_(Y139W), 0.01 M PBS, 25 C, excitation 290 nm, 320 nm cutoff filter; global numerical fit to a two-step induced-fit model

Kd [1]: 330 nM | dH [1]: -8.14 kcal/mol | stoichiometry N [1]: 0.97
Molecule: TBZ_(Y139W), tryptophan variant (pseudo-WT) of the H2A.Z-H2B linked fragment (domain or fragment)

k1+ (first step, association to the intermediate, induced-fit model) [2]: 6.78e+06 M⁻¹ s⁻¹ | k1− (first step, dissociation of the intermediate, induced-fit model) [2]: 53.4 s⁻¹ | k2+ as the column head prints it a second time (taken as k2−, second step reverse, induced-fit model) [2]: 9.88 s⁻¹
B1: TChz, truncated recognition fragment (middle region, MoRF) of the histone chaperone Chz1 (domain or fragment)
chain: DMDDAKLDALMGNEGEEEEDDLAEIDTSNIITSGRRTRGKVIDYKKTAEELDKKEPSTGSKD
